Results from patent US20060067886A1, “Gastrin receptor-avid peptide conjugates” (priority 1997, published 2006).

Assay: in vivo
Details: SCID, mouse, in vivo, iv, 4 uCi, total radioactivity

CSCC[C@H](NC(=O)[C@H](CC(C)C)NC(=O)[C@H](Cc1cnc[nH]1)NC(=O)CNC(=O)[C@@H](NC(=O)[C@H](C)NC(=O)[C@H](Cc1c[nH]c2ccccc12)NC(=O)[C@H](CCC(N)=O)NC(=O)CCCCCCCNC(=O)CN1CCN(CC(=O)O)CCN(CC(=O)O)CCN(CC(=O)O)CC1)C(C)C)C(N)=O [111In-DOTA-8-Aoc-BBN[7-14]NH2, metal not drawn]
tissue uptake dose at […] (Avg % ID, Blood, 15 min): 7.92 ± 2.03 %ID
tissue uptake dose at 0.5 h (Avg % ID, Blood, 30 min): 2.47 ± 0.74 %ID
tissue uptake dose at 1 h (Avg % ID, Blood, 1 hr): 0.92 ± 0.58 %ID
tissue uptake dose at 48 h (Avg % ID, Blood, 48 hrs): 0.12 ± 0.05 %ID
tissue uptake dose at […] (Avg % ID, Carcass, 15 min): 33.1 ± 5.51 %ID
tissue uptake dose at 0.5 h (Avg % ID, Carcass, 30 min): 12.3 ± 3.27 %ID
dose excreted at 24 h (Avg % ID, Feces, 24 hrs): 6.1 ± 2.6%
dose excreted at 48 h (Avg % ID, Feces, 48 hrs): 5.89 ± 3.81%
tissue uptake dose at […] (Avg % ID, Heart, 15 min): 0.2 ± 0.07 %ID
tissue uptake dose at 0.5 h (Avg % ID, Heart, 30 min): 0.06 ± 0.02 %ID
tissue uptake dose at 4 h (Avg % ID, Heart, 4 hrs): 0.01 ± 0.01 %ID
tissue uptake dose at 48 h (Avg % ID, Heart, 48 hrs): 0.01 ± 0.01 %ID
tissue uptake dose at […] (Avg % ID, Kidney, 15 min): 7.18 ± 3.16 %ID
tissue uptake dose at 0.5 h (Avg % ID, Kidney, 30 min): 2.45 ± 0.78 %ID
tissue uptake dose at 1 h (Avg % ID, Kidney, 1 hr): 1.81 ± 0.37 %ID
tissue uptake dose at 4 h (Avg % ID, Kidney, 4 hrs): 0.97 ± 0.08 %ID
tissue uptake dose at 48 h (Avg % ID, Kidney, 48 hrs): 0.16 ± 0.04 %ID
tissue uptake dose at […] (Avg % ID, L. Intestine, 15 min): 5.84 ± 0.9 %ID
tissue uptake dose at 0.5 h (Avg % ID, L. Intestine, 30 min): 4.53 ± 0.45 %ID
tissue uptake dose at 1 h (Avg % ID, L. Intestine, 1 hr): 2.18 ± 0.86 %ID
tissue uptake dose at 24 h (Avg % ID, L. Intestine, 24 hrs): 1.46 ± 0.42 %ID
tissue uptake dose at 48 h (Avg % ID, L. Intestine, 48 hrs): 0.73 ± 0.21 %ID
tissue uptake dose at 72 h (Avg % ID, L. Intestine, 72 hrs): 0.41 ± 0.05 %ID
tissue uptake dose at […] (Avg % ID, Liver, 15 min): 1.85 ± 0.41 %ID
tissue uptake dose at 0.5 h (Avg % ID, Liver, 30 min): 0.85 ± 0.21 %ID
tissue uptake dose at 72 h (Avg % ID, Liver, 72 hrs): 0.08 ± 0.01 %ID
tissue uptake dose at […] (Avg % ID, Lung, 15 min): 0.62 ± 0.25 %ID
tissue uptake dose at 0.5 h (Avg % ID, Lung, 30 min): 0.2 ± 0.06 %ID
tissue uptake dose at 24 h (Avg % ID, Lung, 24 hrs): 0.02 ± 0.01 %ID
tissue uptake dose at 48 h (Avg % ID, Lung, 48 hrs): 0.01 %ID
tissue uptake dose at […] (Avg % ID, Muscle, 15 min): 0.16 ± 0.06 %ID
tissue uptake dose at 0.5 h (Avg % ID, Muscle, 30 min): 0.05 ± 0.02 %ID
tissue uptake dose at 1 h (Avg % ID, Muscle, 1 hr): 0.01 ± 0.01 %ID
tissue uptake dose at 24 h (Avg % ID, Muscle, 24 hrs): 0.01 ± 0.01 %ID
tissue uptake dose at […] (Avg % ID, Pancreas, 15 min): 10.3 ± 1.44 %ID
tissue uptake dose at 0.5 h (Avg % ID, Pancreas, 30 min): 7.37 ± 1.2 %ID
tissue uptake dose at 4 h (Avg % ID, Pancreas, 4 hrs): 3.28 ± 0.8 %ID
tissue uptake dose at 48 h (Avg % ID, Pancreas, 48 hrs): 0.17 ± 0.09 %ID
tissue uptake dose at 72 h (Avg % ID, Pancreas, 72 hrs): 0.06 ± 0.02 %ID
tissue uptake dose at […] (Avg % ID, S. Intestine, 15 min): 6.98 ± 0.35 %ID
tissue uptake dose at 0.5 h (Avg % ID, S. Intestine, 30 min): 6.24 ± 0.46 %ID
tissue uptake dose at 1 h (Avg % ID, S. Intestine, 1 hr): 7.45 ± 1.62 %ID
tissue uptake dose at 4 h (Avg % ID, S. Intestine, 4 hrs): 2.43 ± 0.56 %ID
tissue uptake dose at 24 h (Avg % ID, S. Intestine, 24 hrs): 0.98 ± 0.26 %ID
tissue uptake dose at 48 h (Avg % ID, S. Intestine, 48 hrs): 0.32 ± 0.07 %ID
tissue uptake dose at 72 h (Avg % ID, S. Intestine, 72 hrs): 0.15 ± 0.02 %ID
tissue uptake dose at […] (Avg % ID, Spleen, 15 min): 0.1 ± 0.02 %ID
tissue uptake dose at 0.5 h (Avg % ID, Spleen, 30 min): 0.08 ± 0.03 %ID
tissue uptake dose at 48 h (Avg % ID, Spleen, 48 hrs): 0.01 ± 0.01 %ID
tissue uptake dose at 72 h (Avg % ID, Spleen, 72 hrs): 0.01 ± 0.01 %ID
tissue uptake dose at […] (Avg % ID, Stomach, 15 min): 0.98 ± 0.18 %ID
tissue uptake dose at 0.5 h (Avg % ID, Stomach, 30 min): 0.65 ± 0.04 %ID
tissue uptake dose at 1 h (Avg % ID, Stomach, 1 hr): 0.52 ± 0.11 %ID
tissue uptake dose at 4 h (Avg % ID, Stomach, 4 hrs): 0.34 ± 0.23 %ID
tissue uptake dose at 72 h (Avg % ID, Stomach, 72 hrs): 0.02 ± 0.01 %ID
tissue uptake dose at […] (Avg % ID, Tumor, 15 min): 1.92 ± 1.22 %ID
tissue uptake dose at 0.5 h (Avg % ID, Tumor, 30 min): 0.99 ± 0.62 %ID
tissue uptake dose at 24 h (Avg % ID, Tumor, 24 hrs): 0.25 ± 0.13 %ID
tissue uptake dose at 48 h (Avg % ID, Tumor, 48 hrs): 0.08 ± 0.05 %ID
dose excreted at […] (Avg % ID, Urine, 15 min): 27.9 ± 10.3%
dose excreted at 0.5 h (Avg % ID, Urine, 30 min): 62.6 ± 5.02%
dose excreted at 1 h (Avg % ID, Urine, 1 hr): 68.6 ± 6.96%
dose excreted at 4 h (Avg % ID, Urine, 4 hrs): 81.8 ± 3.82%
dose excreted at 24 h (Avg % ID, Urine, 24 hrs): 87.2 ± 4.31%
dose excreted at 48 h (Avg % ID, Urine, 48 hrs): 91.8 ± 4.13%
dose excreted at 72 h (Avg % ID, Urine, 72 hrs): 92.5 ± 1.09%
tissue uptake at […] (Avg % ID/gm, Blood, 15 min): 5.58 ± 2.43 %ID/g
tissue uptake at 1 h (Avg % ID/gm, Blood, 1 hr): 0.6 ± 0.39 %ID/g
tissue uptake at 48 h (Avg % ID/gm, Blood, 48 hrs): 0.07 ± 0.03 %ID/g
tissue uptake at […] (Avg % ID/gm, Heart, 15 min): 2.2 ± 1.05 %ID/g
tissue uptake at 0.5 h (Avg % ID/gm, Heart, 30 min): 0.62 ± 0.33 %ID/g
tissue uptake at 4 h (Avg % ID/gm, Heart, 4 hrs): 0.13 ± 0.06 %ID/g
tissue uptake at 24 h (Avg % ID/gm, Heart, 24 hrs): 0.05 ± 0.09 %ID/g
tissue uptake at […] (Avg % ID/gm, Kidney, 15 min): 29 ± 14.4 %ID/g
